Measurements published in PMC3196576.

How the values were obtained:
[1] = target: GroEL CP376 (E. coli) (UniProt P0A6F5); test: SEC; gel filtration profiles observed during purification (AKTA FPLC, 4°C); data not shown
[2] = target: GroEL CP376-RW (E. coli) (UniProt P0A6F5); test: as above
[3] = target: GroEL CP376-RW (E. coli) (UniProt P0A6F5); test: negative-stain electron microscopy; GroEL alone, 0.25 mg/ml in 50 mM triethanolamine pH 7.5, 20 mM MgCl2, 50 mM KCl; 1% uranyl acetate

Row | Substance | stoichiometry N [1] | stoichiometry N [2] | stoichiometry N [3]
1 | GroEL CP376 (from UniProt P0A6F5 376-548; P0A6F5 2-374) | 14 | – | –
2 | GroEL CP376-RW (from UniProt P0A6F5 376-548; P0A6F5 2-374) | – | 14 | 14
